From the supplement of paper PMC12338614

B1: library; numbered along this chain (parent)
chain: MEVVDPQQLGMFTEGELMSVGMDTFIHRIDSTEVIYQPRRKRAKLIGKYLMGDLLGEGSYGKVKEVLDSETLCRRAVKILKKKKLRRIPNGEANVKKEIQLLRRLRHKNVIQLVDVLYNEEKQKMYMVMEYCVCGMQEMLDSVPEKRFPVCQAHGYFCQLIDGLEYLHSQGIVHKDIKPGNLLLTTGGTLKISDLGVAEALHPFAADDTCRTSQGSPAFQPPEIANGLDTFSGFKVDIWSAGVTLYNITTGLYPFEGDNIYKLFENIGKGSYAIPGDCGPPLSDLLKGMLEYEPAKRFSIRQIRQHSWFRKKHPPAEAPVPIPPSPDTKDRWRSMTVVPYLEDLHGADEDEDLFDIEDDIIYTQDFTVPGQVPEEEASHNGQRRGLPKAVCMNGTEAAQLSTKSRAEGRAPNPARKACSASSKIRRLSACKQQ

Variants of: B1
Assay: STK11 functional score (HeLa growth suppression), rescaled enrichment; synonymous median = 1, nonsense median = 0 (normalised score)
Conditions: with HeLa; variant type: missense
Method in brief: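 Functional scores are post/pre-selection log ratios corrected to wild type, rescaled to synonymous and nonsense medians, merged over codons and replicate transfections, and given bootstrapped error. They come from POPCode libraries of codon-optimised STK11 integrated by Bxb1 at an AAVS1 landing pad in HeLa, three regions each transfected three times, with BFP-negative, mCherry-positive integrants sorted by FACS and tiled gDNA amplicons sequenced on NextSeq.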

STK11 functional score: each site, then its substitutions
P369: H 0.727; T 1.53; K 1.42; L 1.13; S 1.51; F 1.26; W 1.49; C 1.31; A 1.43; R 1.44; V 1.21; G 1.56; I 1.21; Q 1.43; Y 1.41; D 1.61
Q364: F 1.28; E 0.253; Y 1.53; P 1.4; G 0.7; M 0.768; W 0.791; H 0.685; A 1.53; I 1.26; D 0.845; C 1.28; R 1.1; L 1.33; S 1.4; V 1.11; T 1.46
T363: H 1.17; N 1.03; E 1.6; I 0.824; F 0.261; V 1.2; A 0.828; S 1.34; W 1.19; Y 1.18; G 1.58; C 1.33; D 1.45; P 1.34; L 1.17; Q 1.52; M 1.59; R 1.14
I361: R 1.53; H 1.21; L 1.31; W 1.62; V 1.6; T 1.58; E 1.52; S 1.46; N 1.27; Q 0.616; G 0.895; K 0.624; M 1.09; F 0.984; Y 0.312
V368: Q 0.833; D 1.53; C 1.58; Y 1.54; P 1.46; I 1.53; G 1.38; S 1.1; A 1.36; E 1.42; L 1.35; W 0.786; F 0.859; R 0.87; H 1.08; T 1.56
F366: G 1.55; A 0.753; S 1.58; R 1.52; M 1.48; L 1.16; D 1.6; I 1.08; P 1.62; E 1.6; C 1.09; V 1.42; W 1.58; Y 1.24
T367: K 0.53; G 1.6; I 1.38; C 1.4; R 1.32; S 1.51; Y 1.54; L 1.46; V 1.58; P 1.41; F 1.36; E 1.5; W 1.4; A 1.39
G370: P 1.59; A 1.21; I 1.6; F 1.5; S 1.52; V 0.706; E 1.43; W 1.41; Q 1.55; D 1.24; R 1.16; L 1.42
Y362: A 1.42; L 1.17; S 1.25; F 1.05; G 1.15; V 1.32; H 1.44; M 1.61; P 1.58; R 1.39; W 1.31; I 1.56; C 1.33; N 1.47; E 0.99; T 1.6
D365: V 1.14; G 1.55; R 1.61; L 1.27; H 1.34; S 1.51; Y 1.38; N 0.613; F 0.997; I 1.47; A 0.704; E 0.893; P 1.56; C 1.51; W 1.32; M 1.59
Q371: E 1.26; F 1.12; H 1.15; M 1.46; S 1.32; I 1.52; C 1.36; D 1.43; G 1.03; L 1.44; R 1.55; A 1.6; P 1.3
